{
  "source": "the DeepSol protein solubility set",
  "data": [
    {"assay": "soluble on expression in E. coli; label from the status in PepcDB or PDB records", "values": [
      {"sequence": "MGSDKIHHHHHHMSLKAKLARKFVYAVFPDVRKYTSIKPAFENSPDSPEGRLVPEVVALYGKPGVHILKMALVLPYLVGTAYYARKSVTSVRRNPGKGKKTAPPEFFEELESYAKSLGVLKVGYTKLTPELVFSNRAVLFENAIVLIGEMRKKEIAKAPGVRAGMEVWRTYYRLTRAAYKIAEFLRERGYNAQPDPAVGRSTNFPLLAQKAGLDHIGKHGLLITPENGPSVRIGAVYTDLELPYTDERVREHGWIPHFCDRCNACVRACPAQAIYITPRRENGREVHIDYKRCAVIFSRTLGCSICVKECTFTKGSYEKIKRVHEKIRNR", "soluble on expression in E. coli": "not soluble"},
      {"sequence": "MANSLAIIADPKTGKTYKREIPSERMSSLIGRKIGEEVDGVFFDLVGYKMKITGGSSVDGFAMRPDLQTQGKKQILVKYTSGYRGKNGIRKRITARGSIIGSDITQINLKITQYGPTLEHHHHHH", "soluble on expression in E. coli": "not soluble"},
      {"sequence": "MKQQEEHNNKIDLLEKQQAQLKSQLETIQKQQTGIISSTKTLTHVIKSVKDQQNTFIFTEFNPAKTKYFILNNGSVALAGRVLSIDATENGSVIHISLVNLLSTPISNIGFNATWGGEKPVDAKEFARWQQLLFNTSMKSTLKLLPGQWQDINLTLKGVSPNNLGYLKLAINMENIQFDNLPSAENRQKRSKK", "soluble on expression in E. coli": "not soluble"},
      {"sequence": "MFTQQRLRPNTQELLKETNHLCEAFAISESILARYQRNNRQLSESEKKAFASLLLRVPHDFLTETVASLGTSKTSSIGPTTDLGSLIDNVFGFGKPLKDVFQLLNQELGNCLNSPRCRVYYLDPTDNLLKDPVYATASTLDETTPLGKAVLTGIQREIAGTLYLPLSFEGKVIACVESAWGSPEKGDKRRIKETLQFVACAMHNAIESERLRWNKEKAEAMLEMATQLARDNLDEAVLANSIMNTAKVLTESDRCSIFLVKDDTLEAHFEDGNIVAIPIATGIAGYVAQTGQTVKISDAYSDDRFNREVDKATGYRTKTILCMPVTYEGSIVAVAQLINKLDMVTESGLRLPRTFGKRDEELFQTFSMFAGASLRNCRINEKLINEKRKSDAILDVVTLLSNTDIRDVDGIVRHVLHGAKRLLYADRSALFLVDKERNELYSRIADSVAGKEIRFPCGQGIAGIVASTGIGENILDAYQDPRFNREVDKQLGYRTQTLLCEPIVLNGEILAVVQLVNKLNEAGEVTVFTESDRETFRVFSLFAGISINNSHLLEFAVKAGREMMELNENRALAGGRTGSLRNIKRPLAITEAERQAVRDINLAHLDITSIDFDLFYLRENMELPLDAAAAVAYRLIVGTGLPQKFRCRDDTLLNFILQCRKKYRNVPYHNFYHVVDVCQTVYTFLYKGAVCEKLTELDCFVLLVTALVHDLDHMGLNNSFYLKTDSPLGILSSASGNASVLEVHHCNLAVEILSDPDSDVFEGLDAADRTLAYRSMIDCVLATDMAKHGKSLESFLSVLGNPETSEQRIAELTMQIVLKAGDVSNVTKPFDISRLWAMAVTEEFYRQGDMEKEKGVEVLPMFDRSKNTELAKGQIGFIDFVAGPFFKKIVSASLTGMQWTVERVESNRLEWQRSLDAK", "soluble on expression in E. coli": "not soluble"},
      {"sequence": "MGSDKIHHHHHHMAELQEVQITEEKPLLPGQTPETAKEAELAARILLDQGQTHSVETPYGSVTFTVYGTPKPKRPAIFTYHDVGLNYKSCFQPLFRFGDMQEIIQNFVRVHVDAPGMEEGAPVFPLGYQYPSLDQLADMIPCILQYLNFSTIIGVGVGAGAYILSRYALNHPDTVEGLVLINIDPNAKGWMDWAAHKLTGLTSSIPDMILGHLFSQEELSGNSELIQKYRGIIQHAPNLENIELYWNSYNNRRDLNFERGGETTLKCPVMLVVGDQAPHEDAVVECNSKLDPTQTSFLKMADSGGQPQLTQPGKLTEAFKYFLQG", "soluble on expression in E. coli": "not soluble"},
      {"sequence": "ENKILKIEKGTSGWGGPLYIKKEGNRNKILSMTAGGIHEVTLKIKELLGCEIVDGFKTGVSDEEVAVVIIDCGGTARCGVYPKKKIPTINVNPVGKTGPLAKFITEEYYVSDVNPNCISVVDGEDMPQKSQENKSENKSSIRKPDNYDEVKSKAQGEYAKKNIILSIGQGAGQVVSKFYDAGRDTIQMVMNN", "soluble on expression in E. coli": "not soluble"},
      {"sequence": "SGGLLIASAHFGAYVCGTDIDYNTVHGLGKASRKNQKWRGPDENIRANLRQYGLEKFYLDVLVSDASKPSWRKGTYFDAIITDPPYGIRESTRRSGSQKDIPKGIEKCPESHVPVSLSYHLSDMFFDLLNFAAETLVLGGRLVYWLPVYTPEYTEEMVPWHPCLRLISNCEQKLSSHTARRLITMEKVKEFENRDKYSHLLSDHFLPYQGHNSFREKYFSGVTKRIAKEEKCSHE", "soluble on expression in E. coli": "not soluble"},
      {"sequence": "MPRIRCERCARPASHCLCALIPSLPSRTRVLVLQHPSEVGHALNTAGLAVLGLCNAELRVGERFAEETWRVPGYRACLLFPGEQARALAEMAAEAAGEPLLLVVPDGTWRKARKLLHLNPALAALPRVSLAEGMASRYRLRKAPGEGALSTIEAIAAALDELEAPRTHEALLKPFDALIEGQIAAMGEDTYRRNHLSQERRRRLEHHHHHH", "soluble on expression in E. coli": "soluble"},
      {"sequence": "MSLDYQGYLIDLDGTIYLGKEPIPAGKRFVERLQEKDLPFLFVTNNTTKSPETVAQRLANEFDIHVPASLVYTATLATIDYMKEANRGKKVFVIGEAGLIDLILEAGFEWDETNPDYVVVGLDTELSYEKVVLATLAIQKGALFIGTNPDKNIPTERGLLPGAGSVVTFVETATQTKPVYIGKPKAIIMERAIAHLGVEKEQVIMVGDNYETDIQSGIQNGIDSLLVTSGFTPKSAVPTLPTPPTYVVDSLDEWTFEGHHHHHH", "soluble on expression in E. coli": "soluble"},
      {"sequence": "MSLRNVLQDYLDEHSFRVVVKKKKNYLTYEGLQDRYAYILKSGIIKTSVISKDGREFNLRYINNLEIVSLLRDEYSEFIDAPFNIRIESPQAELYQIDRVQFWRDINNSKDLQMYVKEYYRDRLMHSMKKMQQMLMNGKFGAVCTQIYEMYDSFGVETEEGILIDFVVTNEEIAHFCGITSASSVNRMMQQLKELGAIELRNRKILIKDLDMIRDNEGGSHHHHHH", "soluble on expression in E. coli": "soluble"},
      {"sequence": "MFGGGSSGPVDTTLYTTLNVRPDASQADIKKSYFKLAKEYHPDKNPDHGDKFKEISFAYEVLSSPEKRRLYDARGLEGVQGGGAGGGGGGFPGGLFSHFFGGAGGDDDDDDDDMGGHPFGGLFGGMGGMGRGGPRRRKFQDTVHPLNVTLEELYVGKTSKLKLSKKALCKTCEGSGGKKGEKYKCDACRGRGVKTIVQQIGPGMLQQMQVHCDACKGSGGKVPAGDKCKGCHGEKYENVSKILEVHVLPGMKHNDKITFKGDGDQSDPDGEPGDVVIVIQQKDHDIFKRDGDDLHMTKKLSLNEALCGYNFLIKHLDGHPLVLSSKQGDVIKPGVIRGVLGKGMPNKKYPELKGNLFVEFEVEFPKEHFLDDEKAYAVLKSCFPTSKVVNVTPAAAEVSLMEYDEKKYSRGRGGDAYNEDSDEEQHGGHHGQGVRCQHQ", "soluble on expression in E. coli": "not soluble"},
      {"sequence": "MQTLILMAYIKRLVSEGKHASLREAYYANKHTVPGTRENTFEDQSESDPIIEDLERMLGVLREEMHITADRRGYIYGDIVIKDGEDEFNASKLGTGGWAVPGTVEHIQFPEINVDYVLVVETAAMADRLIEEKYPKRENCLIVATQGQASRGVRRLIHRLHYEEGLPIIVFTDGDPYGWYIYSTIKRGSINLAYLSEKLATPDAKFVGMTMDDIKEYNLENVTEKLKGIPPDKKGGPTGDYKRLIEELNYPWFQDKEWQRQLKLALKWGVRIEQQALANKSLEFVAKEYLPEKIREGKLLP", "soluble on expression in E. coli": "soluble"},
      {"sequence": "MSLKVLVTGGAGYVGTELVLKLAKDPSISKVVVFDNLSRENYNLFINSAQRIAKDKIQFEFGDLLDSRKIRKILADIDVVYHLAARVSTPFANADSHLYEQVNHWGTAELVYAIEEIKTVQKLIYVSSCSVYGSGKELIDENSVVNPKTIYGVSKMRGEEHVSRLGNKMNAVIIRLGNVYGYSSSMRFDAVINKFMFESHYKNRISIHGNGRQSRSFIHVDKAVDSLVKITSTDIPSGTYNLTERNLEIYDLIDQVKDLYPTLEFIFINQHLELREQKINPETKLLKYIPLQQTDFTAELAAFRDHFTFQTTSEGHHHHHH", "soluble on expression in E. coli": "soluble"},
      {"sequence": "MASMNDFIGRWKLVQTENFDEYMKEIGVGLITRKAAAHLKPILEIRLDGETWNFDQFSTFKNTKLSFKLGEEFVENSPDDRTYNSLFTFENGKLTHRQNKIKENHKSSVLTTWLENGKLIQTYQSGDVICRREWERE", "soluble on expression in E. coli": "not soluble"},
      {"sequence": "MDLSVTHMDDLKTVMEDWKNELLVYKFALDALDTKFSIISQEYNLIHGHNPIEHTKSRVKSFESIVNKLMRKGCEITTKEMKEHIHDIAGVRIICSFISDIYNVVNVLKQHEDLRIVKVKDYIQTPKPNGYRSLHLIIEMPVNLTNRVEYVKAEIQIRTIAMDFWASLEHKIYYKLNNDVPKQLTDELKEAAEIAHYLDEKMLGIKKEVD", "soluble on expression in E. coli": "not soluble"},
      {"sequence": "MGSDKIHHHHHHMEGGAMMLLEVKNVTKKFGDKVVLKNISFTLEEGESLGILGKSGAGKSVLLHMLRGMDGYEPTEGQIIYHVSYCEKCGYVDVPSKAGTPCKKCGNELKKIEVDFWNDKKYTYNLKRKIAIMLQRTFALYGEKTVLENILEALHQAGYEGKEAIDMALKLIKMVKLEHRITHIARDLSGGEKQRVVLARQIAKEPFIFLADEPTGTLDPQTAKLVHSALKELVIKNKISLILTSHWPEVIAELTEKAIWLDKGEIIMEGTSEEVVNKFMETVKEFKKPETEVEIKEDIIKLENVSKHYCSVERGVIKAVDNVTLNIREREIFGLVGTSGAGKTTLAKIIAGVLPPSKGKYWFRVGDEWVDMTKPGPMGRGRAKRYIGILFQEYALYPHRTILENLTEAIGLELPDEFARMKAVYTLVSVGFSEEEAEEILDKYPHELSVGERHRCALAQVLIKEPRVVILDEPTGTMDPITRNTVAESIHKSRIELEQTYIIVSHDMDFVLNVCDRAGLMRNGKLIKVGKPEEIVALLTEEEKQEMFGQK", "soluble on expression in E. coli": "not soluble"},
      {"sequence": "MGSDKIHHHHHHMSPREVAAPHEVKARLYILDTNVLMHDPSALFRFEEHDILLPMIVLEELDQHKKGLSEQARNVRQVSRYLDEMLTDTADLDRGLVLPYAQGRLYFQTAAHQQALPEDLAGGKADHEILAVTLALQNRHPEKDVILVSKDINLRIKGRTLGIRVEDYQNDRALDDVDLLYTGAETLSADFWDLHSRDLDAWQESGRSYYKISGPAIQRWHSNQFIAINVEEGAPEDFAAIVREVRPEHAIIERITDYRSDRHAVWGILARNPEQNFALNLLMDPDIDFVTLLGHAGTGKTLLTLAAALHQIFEQKRYSEVIITRATVPVGDEIGFLPGTEEEKMLPWMGALEDNLEILARGSDEGGSWGRSATQDLINKRIRVKSMSFMRGRTFLEKFVIIDEAQNLTSKEMKTLITRAGPGTKIVCLGNIAQIDTPYLTETTSGLTYVVDRFKDWAYSGHITLRRGERSRLADFANDAL", "soluble on expression in E. coli": "not soluble"},
      {"sequence": "MDHLPIFCQLRDRDCLIVGGGDVAERKARLLLEAGARLTVNALTFIPQFTVWANEGMLTLVEGPFDETLLDSCWLAIAATDDDTVNQRVSDAAESRRIFCNVVDAPKAASFIMPSIIDRSPLMVAVSSGGTSPVLARLLREKLESLLPQHLGQVARYAGQLRARVKKQFATMGERRRFWEKFFVNDRLAQSLANADEKAVNATTERLFSEPLDHRGEVVLVGAGPGDAGLLTLKGLQQIQQADIVVYDRLVSDDIMNLVRRDADRVFVGKRAGYHCVPQEEINQILLREAQKGKRVVRLKGGDPFIFGRGGEELETLCHAGIPFSVVPGITAASGCSAYSGIPLTHRDYAQSVRLVTGHLKTGGELDWENLAAEKQTLVFYMGLNQAATIQEKLIAFGMQADMPVALVENGTSVKQRVVHGVLTQLGELAQQVESPALIIVGRVVALRDKLNWFSNH", "soluble on expression in E. coli": "soluble"}
    ]}
  ]
}
